Experimental data from patent US20120231006A1 (Amgen, published 2012).
Residue numbers refer to the chain shown, from its start.

B1: mAb 2B4.1 (antibody, human IgG2, lambda, V domains shown)
VH: QVQLVQSGAEVKKPGASVKVSCKASGYTFTDYYMHWVRQAPGQGLEWMGWINPNSGGTNYVQKFQDRVTMTRDTSITTAYMELTRLRSDDTAVYYCAREEGDYGMDVWGQGTTVTVSS
VL: QSVLTQPPSVSGAPGQRVTISCTGSNSNIGTGYDVHWYQKLPGTAPRLLIYSHFNRPSGVPDRFSGSTSGTSASLAITGLQAEDEADYYCQSYDSSLSGSVFGGGTKLTVLG
B2: mAb 5A4.2 (antibody, human IgG2, lambda, V domains shown)
VH: QVQLVQSGAEVKKPGASVKVSCKASGYTFTDYYMNWVRQAPGQGLEWMGWINPNSGGTKYAQKFQGRVTMTRDTSIRTAYMELSRLRSDDTAVYYCSREYGGNSDWFDPWGQGTLVTVSS
VL: QSVLTQPPSVSGAPGQRVTISCTGSSSNIGAGYDVHWYQQLPGTAPKLLIYGNSNRPSGVPDRFSGSKSGTSASLAITGLQAEDEADYYCQSYDNRLSDSVVIGGGTKLTVQG
notes: fully human IgG2 lambda, Campaign 2
B3: mAb 5B5.2 (antibody, human IgG2, lambda, V domains shown)
VH: B2 VH with M34I, K59D, S84N, R87T, S97A, N103Y, S104E
VL: QSVLTQPPSVSGAPGQRVTISCTGSNSNIGAGFDVHWYQQLPGTVPKLLIYGNNNRPSGVPDRFSGSKSGTSASLAITGLQAEDEADYYCQSYDSRLTVFGGGTKLTVLG
notes: fully human IgG2 lambda, Campaign 2; same chains as 5B5.1
B4: mAb 5B1.1 (antibody, human IgG2, lambda, V domains shown)
VH: B2 VH with M34I, T58S, K59S, R77S, Y80H, S84I, S97A, Y100R, N103I, S104E
VL: QSVLTQPPSVSGAPGQRVTISCTGSSSNIGAGYDVHWYQQLPGTAPKLLIYGNSNRPSGVPDRFSGSKSGTSASLAITKFQAEDEAVYYCQSYGSGLSGVVFGGGTKLTVLG
notes: fully human IgG2 lambda, Campaign 2; also called mAb 5Bl1.1
B5: mAb 5C1.1 (antibody, human IgG2, lambda, V domains shown)
VH: B2 VH with S97A
VL: B2 VL with T110A
notes: as for B2
B6: mAb 5F2.1 (antibody, human IgG2, lambda, V domains shown)
VH: B2 VH with K59H, R77S, S97A, N103Y
VL: B2 VL with S26R, G43R, G52D, T71S, R96S, V102L, Q112L
notes: as for B2
B7: mAb 5F7.1 (antibody, human IgG2, lambda)
heavy: QVQLVQSGAEVKKPGASVKVPCKASGYTFTDYYINWVRQAPGQGLEWMGWINPNNGGTNYAQKFQGRVTMTRDTSISTAYMELRRLRSDDTAVYYCARERGGYEDWFDPWGQGTLVTVSSASTKGPSVFPLAPCSRSTSESTAALGCLVKDYFPEPVTVSWNSGALTSGVHTFPAVLQSSGLYSLSSVVTVPSSNFGTQTYTCNVDHKPSNTKVDKTVERKCCVECPPCPAPPVAGPSVFLFPPKPKDTLMISRTPEVTCVVVDVSHEDPEVQFNWYVDGVEVHNAKTKPREEQFNSTFRVVSVLTVVHQDWLNGKEYKCKVSNKGLPAPIEKTISKTKGQPREPQVYTLPPSREEMTKNQVSLTCLVKGFYPSDIAVEWESNGQPENNYKTTPPMLDSDGSFFLYSKLTVDKSRWQQGNVFSCSVMHEALHNHYTQKSLSLSPGK
light: QSVLTQPPSVSGAPGQRVTISCTGSSSNIGAGFDVHWYQQLPVTAPKLLIYGNRNRPSGVPARFSGSKSGTSASLAITGLQAEDEAVYYCQSYDSSLTVFGGGTKLTVLGQPKANPTVTLFPPSSEELQANKATLVCLISDFYPGAVTVAWKADGSPVKAGVETTKPSKQSNNKYAASSYLSLTPEQWKSHRSYSCQVTHEGSTVEKTVAPTECS
notes: as for B2
B8: mAb 5A1.1 (antibody, human IgG2)
heavy: B7 heavy
VL: QSVLTQPPSVSGAPGQRVTISCTGSSSNIGAGFDVHWYQQLPVTAPKLLIYGNRNRPSGVPARFSGSKSGTSASLAITGLQAEDEAVYYCQSYDSSLTVFGGGTKLTVL
notes: fully human, Campaign 2; lambda CL-1

Target: human Orai3 (human, UniProt Q9BRQ5 1-295)
Experiment: FACS, 293EBNA transfectants
Description: (§1) Purified monoclonal antibodies from hybridoma supernantants of the subclones derived from initial hits were assessed for binding to human Orai1, Orai2 and Orai3 expressed on HEK-293-EBNA cells along with vector transfected control parental cells. Cells stained with or without primary mAbs were counter-stained with a secondary phycoerythrin-labeled goat (“Gt”) anti-human (“Hu”) IgG F(ab′)₂ antibody fragment and visualized using FACS.
(§2) FACS binding analysis. Transfected 293EBNA cells transiently expressed hOrai1, human Orai2, or human Orai3 (results of binding comparison in FIG. 11A-B), or hOrai1(S218G) (results of binding comparison in FIG. 12A-B); or hOrai1 and hSTIM1; mOrai1 and mouse STIM1; or rat Orai1 and rat STIM1 (results of binding comparison in FIG. 13). The transfected cells were harvested at 48 hours post-transfection. Cells transfected with pcDNA3.1 were used as negative controls. Cells were washed once with ice-cold 1×PBS, resuspended in ice-cold FACS buffer (1×D-PBS+2% goat serum), and 2×10⁵ cells in […] were stained per antibody combination. All antibody incubation steps were performed on ice for 1 hour. […] Next, the unlabelled antibody was detected using goat F(ab′)₂ anti-mouse or anti-human IgG-phycoerythrin (IgG-PE), followed by a wash with 200 μL of ice-cold FACS buffer before flow cytometry analysis. Unstained cells and cells stained with detecting antibodies were used as negative controls. The values of relative level of fluorescence were calculated using FCS Express (De Novo Software) and mean values were calculated using log-transformed data (geometric mean). Purified mAbs were assessed by FACS assay for their ability to specifically bind human Orai1, Orai2 and Orai3 proteins expressed on HEK-293 cells.

Binder | binding result
B1 | no binding (tested: 1 µg)
B2 | no binding (tested: 1 µg)
B3 | no binding (tested: 1 µg)
B4 | no binding (tested: 1 µg)
B5 | no binding (tested: 1 µg)
B6 | no binding (tested: 1 µg)
B7 | no binding (tested: 1 µg)
B8 | no binding (tested: 1 µg)

Target: T1, human Orai2 (human, UniProt Q96SN7 1-254)
T1 construct: also called hOrai2
Experiment: FACS, 293EBNA transfectants
Description: as §1, §2

T1 sequence (Q96SN7 whole entry): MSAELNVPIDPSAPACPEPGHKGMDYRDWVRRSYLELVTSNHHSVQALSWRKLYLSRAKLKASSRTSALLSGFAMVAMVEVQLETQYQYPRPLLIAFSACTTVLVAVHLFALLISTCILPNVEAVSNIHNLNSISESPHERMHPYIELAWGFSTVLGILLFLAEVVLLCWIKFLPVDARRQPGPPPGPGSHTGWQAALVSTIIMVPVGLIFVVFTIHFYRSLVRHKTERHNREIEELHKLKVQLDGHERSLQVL

Binder | binding result
B1 | no binding (tested: 1 µg)
B2 | no binding (tested: 1 µg)
B3 | no binding (tested: 1 µg)
B4 | no binding (tested: 1 µg)
B5 | no binding (tested: 1 µg)
B6 | no binding (tested: 1 µg)
B7 | no binding (tested: 1 µg)
B8 | no binding (tested: 1 µg)

Target: T2, human Orai1 (human, UniProt Q96D31 1-301)
T2 construct: on AM1-CHO/hOrai1/hSTIM1-YFP, AM1/hOrai1, HEK-293 transfectants, endogenous on Jurkat and blood cells; in Westerns from cell lysates; also called hOrai1; CRACM1
Experiment: KinExA, AM1-CHO/hOrai1/hSTIM1-YFP cells
Description: Each equilibrium sample set was read in triplicate on the KinExA machine. For low [Ab] equilibrium samples 4 mL was run of each sample in triplicate. For high [Ab] equilibrium samples 300 μL was run of each sample in triplicate. […] For each equilibrium sample the free [Ab] would be detected by first running the coated beads through the flow cell, then after quick wash with the running buffer (1×PBS pH7.4+1% BSA+0.05% Sodium Azide) the equilibrium samples were passed through the beads followed by a quick wash with the running buffer. Then the secondary detection Ab, Gt anti Hu (H+ L) Cy5, was run through the flow cell at 1 μg/mL and 1000 μL per run. The KinExA voltage output signal was then used in KinExA software to calculate the Kd values for each antibody. From the plots at two different initial total [Ab] concentrations the Kd was obtained from curve fitting using n-curve analysis in KinExA Pro software (Sapidyne Instruments Inc., Boise Id.).

T2 sequence (Q96D31 whole entry): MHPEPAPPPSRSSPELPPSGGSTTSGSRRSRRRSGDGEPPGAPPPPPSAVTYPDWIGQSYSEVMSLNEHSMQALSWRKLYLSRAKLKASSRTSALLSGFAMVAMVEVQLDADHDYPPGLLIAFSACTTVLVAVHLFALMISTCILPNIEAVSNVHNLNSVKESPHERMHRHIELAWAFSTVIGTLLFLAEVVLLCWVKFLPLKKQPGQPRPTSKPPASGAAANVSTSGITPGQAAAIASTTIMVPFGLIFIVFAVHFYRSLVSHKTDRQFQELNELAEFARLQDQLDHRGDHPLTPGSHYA

Binder | Kd [pM]
B7 | 19

Target: T3, hOrai1-mOrai1 ECL2 (SKPPA) protein (human/mouse chimera, UniProt Q96D31 1-301)
T3 construct: also called Ch
Experiment: FACS, 293EBNA, RFI-POC grade
Design: concentration or dose not given beside the values

T3 sequence (Q96D31 other isoform, or with tags, fused parts or gaps): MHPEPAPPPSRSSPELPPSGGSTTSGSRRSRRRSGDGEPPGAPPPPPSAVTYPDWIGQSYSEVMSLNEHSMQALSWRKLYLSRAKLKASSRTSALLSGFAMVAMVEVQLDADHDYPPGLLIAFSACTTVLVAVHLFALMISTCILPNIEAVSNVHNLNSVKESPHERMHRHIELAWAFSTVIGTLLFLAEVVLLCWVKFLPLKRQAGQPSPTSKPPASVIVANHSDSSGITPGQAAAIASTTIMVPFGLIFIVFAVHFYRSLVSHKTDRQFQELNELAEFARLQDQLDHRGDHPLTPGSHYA

Binder | percent of control (POC) of FACS Geo Mean [%]
B1 | 1 to 5

Target: T3, hOrai1-mOrai1 ECL2 (SKPPA) protein
Experiment: FACS, 293EBNA, RFI-POC grade
Design: concentration or dose not given beside the values
Remark: another data set of the same source

Binder | percent of control (POC) of FACS Geo Mean [%]
B2 | 40 to 100
B3 | 5 to 40
B4 | 5 to 40
B5 | 40 to 100
B6 | 40 to 100
B7 | 40 to 100
B8 | 40 to 100

Target: T4, hOrai1-mOrai1 ECL2 (…) protein (human/mouse chimera, UniProt Q96D31 1-301)
T4 construct: also called Ch
Experiment: FACS, 293EBNA, RFI-POC grade
Design: concentration or dose not given beside the values

T4 sequence (Q96D31 other isoform, or with tags, fused parts or gaps): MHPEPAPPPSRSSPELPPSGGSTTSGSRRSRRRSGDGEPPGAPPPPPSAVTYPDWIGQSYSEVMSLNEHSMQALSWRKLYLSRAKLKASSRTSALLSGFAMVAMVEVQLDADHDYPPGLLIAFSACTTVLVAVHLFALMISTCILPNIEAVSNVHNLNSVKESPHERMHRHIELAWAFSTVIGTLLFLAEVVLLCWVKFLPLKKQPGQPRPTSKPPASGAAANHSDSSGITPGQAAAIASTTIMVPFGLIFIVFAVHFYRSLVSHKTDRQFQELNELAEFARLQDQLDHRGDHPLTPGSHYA

Binder | percent of control (POC) of FACS Geo Mean [%]
B2 | 40 to 100
B3 | 40 to 100
B4 | 40 to 100
B5 | 40 to 100
B6 | 40 to 100
B7 | 40 to 100
B8 | 40 to 100

Target: T5, hOrai1-mOrai1 ECL2 (RPTSKPPA) protein (human/mouse chimera, UniProt Q96D31 1-301)
T5 construct: also called Ch
Experiment: FACS, 293EBNA, RFI-POC grade
Design: concentration or dose not given beside the values

T5 sequence (Q96D31 other isoform, or with tags, fused parts or gaps): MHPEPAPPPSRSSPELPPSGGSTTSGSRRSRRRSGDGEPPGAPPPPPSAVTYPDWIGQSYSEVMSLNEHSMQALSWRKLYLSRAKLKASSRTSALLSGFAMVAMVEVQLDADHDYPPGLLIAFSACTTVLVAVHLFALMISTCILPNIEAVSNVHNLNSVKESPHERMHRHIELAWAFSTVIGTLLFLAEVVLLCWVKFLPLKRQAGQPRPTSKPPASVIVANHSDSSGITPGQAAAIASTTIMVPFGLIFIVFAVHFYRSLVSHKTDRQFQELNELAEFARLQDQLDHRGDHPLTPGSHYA

Binder | percent of control (POC) of FACS Geo Mean [%]
B2 | 40 to 100
B3 | 40 to 100
B4 | 40 to 100
B5 | 40 to 100
B6 | 40 to 100
B7 | 40 to 100
B8 | 40 to 100
